21 molecules from patent publication US20230212312A1 (published 2023) can be followed below.

B1: 2/99 VH1/VL9-NYA (antibody, V domains shown)
VH: VQLVETGGGLIQPGGSLRLSCAASGFSLSSYAMSWVRQAPGKGLEWVGYIWSGGSTDYADSVKGRFTISRDNSKNTLYLQMNSLRAEDTAVYYCARRYGTSYPDYGDANGFDPWGQGTLVTVSS
VL: AIQLTQSPSSLSASVGDRVTITCRASQSISSYLAWYQQKPGKAPKLLIYRASTLASGVPSRFSGSGSGTDFTLTISSLQPEDFATYYCQQNYASSNVDNTFGGGTKVEI
B2: 2/99 VH8/VL9-NYA (antibody, V domains shown)
VH: QQLVETGGGLIQPGGSLRLSCAASGFSLSSYAMSWVRQAPGKGLEWIGYIWSGGSTDYASWAKGRFTISKTSTTLYLQMNSLRAEDTAVYYCARRYGTSYPDYGDANGFDPWGQGTLVTVSS
VL: AIQLTQSPSSLSASVGDRVTITCRASQSISSYLAWYQQKPGKAPKLLIYRASTLASGVPSRFSGSGSGTDFTLTISSLQPEDFATYYCQQNYASSNVDNTFGGGTKVEI
B3: 2/99 VH6/VL9-NYA (antibody, V domains shown)
VH: QQLVETGGGLIQPGGSLRLSCAASGFSLSSYAMSWVRQAPGKGLEWIGYIWSGGSTDYADSVKGRFTISRDNSKNTLYLQMNSLRAEDTAVYYCARRYGTSYPDYGDANGFDPWGQGTLVTVSS
VL: AIQLTQSPSSLSASVGDRVTITCRASQSISSYLAWYQQKPGKAPKLLIYRASTLASGVPSRFSGSGSGTDFTLTISSLQPEDFATYYCQQNYASSNVDNTFGGGTKVEI
B4: 2/99 VH5/VL9-NYA (antibody, V domains shown)
VH: QSMEETGGGLIQPGGSLRLSCAASGFSLSSYAMSWVRQAPGKGLEWVGYIWSGGSTDYADSVKGRFTISRDNSKNTLYLQMNSLRAEDTAVYYCARRYGTSYPDYGDANGFDPWGPGTLVTVSS
VL: AIQLTQSPSSLSASVGDRVTITCRASQSISSYLAWYQQKPGKAPKLLIYRASTLASGVPSRFSGSGSGTDFTLTISSLQPEDFATYYCQQNYASSNVDNTFGGGTKVEI
B5: 2/99 VH2/VL9-NYA (antibody, V domains shown)
VH: EVQLVETGGGLIQPGGSLRLSCAASGFSLSSYAMSWVRQAPGKGLEWVGYIWSGGSTDYADSVKGRFTISRDNSKNTLYLQMNSLRAEDTAVYYCARRYGTSYPDYGDANGFDPWGQGTLVTVSS
VL: AIQLTQSPSSLSASVGDRVTITCRASQSISSYLAWYQQKPGKAPKLLIYRASTLASGVPSRFSGSGSGTDFTLTISSLQPEDFATYYCQQNYASSNVDNTFGGGTKVEI
B6: 2/99 VH7/VL9-NYA (antibody, V domains shown)
VH: QQLVETGGGLIQPGGSLRLSCAASGFSLSSYAMSWVRQAPGKGLEWIGYIWSGGSTDYASWAKGRFTISRDNSKNTLYLQMNSLRAEDTAVYYCARRYGTSYPDYGDANGFDPWGQGTLVTVSS
VL: AIQLTQSPSSLSASVGDRVTITCRASQSISSYLAWYQQKPGKAPKLLIYRASTLASGVPSRFSGSGSGTDFTLTISSLQPEDFATYYCQQNYASSNVDNTFGGGTKVEI
B7: 2/99 VH0(rb)/VL1 (antibody, V domains shown)
VH: QSMEESGGRLVTPGTPLTLTCTVSGFSLSSYAMSWVRQAPGKGLEWIGYIWSGGSTDYASWAKGRFTISKTSTTVDLKITSPTTEDTATYFCARRYGTSYPDYGDANGFDPWGPGTLVTVSS
VL: DIQMTQSPSSLSASVGDRVTITCRASQSISSYLNWYQQKPGKAPKLLIYRASSLQSGVPSRFSGSGSGTDFTLTISSLQPEDFATYYCQQSYSSSNVDNTFGGGTKVEIK
B8: 2/99 VH0(rb)/VL2 (antibody, V domains shown)
VH: QSMEESGGRLVTPGTPLTLTCTVSGFSLSSYAMSWVRQAPGKGLEWIGYIWSGGSTDYASWAKGRFTISKTSTTVDLKITSPTTEDTATYFCARRYGTSYPDYGDANGFDPWGPGTLVTVSS
VL: DIQMTQSPSSLSASVGDRVTITCRASQSISSYLNWYQQKPGKAPKLLIYRASTLASGVPSRFSGSGSGTDFTLTISSLQPEDFATYYCQQSYSSSNVDNTFGGGTKVEIK
B9: 2/99 VH23-DANG/VL17 (antibody, V domains shown)
VH: QSMQESGPGLVKPSQTLSLTCTVSGFSLSSYAMSWIRQHPGKGLEWIGYIWSGGSTDYASWAKSRVTISKTSTTVSLKLSSVTAADTAVYYCARRYGTSYPDYGDANGFDPWGQGTLVTVSS
VL: AIQLTQSPSSLSASVGDRVTITCRASQSISSYLAWYQQKPGKAPKLLIYRASTLASGVPSRFSGSGSGTDFTLTISSLQPEDFATYYCQQTYSSSNVDNTFGGGTKVEIK
B10: 2/99 VH23-DANG/VL2 (antibody, V domains shown)
VH: QSMQESGPGLVKPSQTLSLTCTVSGFSLSSYAMSWIRQHPGKGLEWIGYIWSGGSTDYASWAKSRVTISKTSTTVSLKLSSVTAADTAVYYCARRYGTSYPDYGDANGFDPWGQGTLVTVSS
VL: DIQMTQSPSSLSASVGDRVTITCRASQSISSYLNWYQQKPGKAPKLLIYRASTLASGVPSRFSGSGSGTDFTLTISSLQPEDFATYYCQQSYSSSNVDNTFGGGTKVEIK
B11: 2/99 VH23-DANG/VL12 (antibody, V domains shown)
VH: QSMQESGPGLVKPSQTLSLTCTVSGFSLSSYAMSWIRQHPGKGLEWIGYIWSGGSTDYASWAKSRVTISKTSTTVSLKLSSVTAADTAVYYCARRYGTSYPDYGDANGFDPWGQGTLVTVSS
VL: DIQMTQSPSSLSASVGDRVTITCRASQSISSYLAWYQQKPGKAPKLLIYRASTLASGVPSRFSGSRSGTDFTLTISSLQPEDFATYYCQQHYSSSNVDNTFGGGTKVEIK
B12: 2/99 VH0(rb)/VL3 (antibody, V domains shown)
VH: QSMEESGGRLVTPGTPLTLTCTVSGFSLSSYAMSWVRQAPGKGLEWIGYIWSGGSTDYASWAKGRFTISKTSTTVDLKITSPTTEDTATYFCARRYGTSYPDYGDANGFDPWGPGTLVTVSS
VL: AYQMTQSPSSLSASVGDRVTITCRASQSISSYLNWYQQKPGKAPKLLIYRASTLASGVPSRFSGSGSGTDFTLTISSLQPEDFATYYCQQSYSSSNVDNTFGGGTKVEIK
B13: 2/99 VH0(rb)/VL4 (antibody, V domains shown)
VH: QSMEESGGRLVTPGTPLTLTCTVSGFSLSSYAMSWVRQAPGKGLEWIGYIWSGGSTDYASWAKGRFTISKTSTTVDLKITSPTTEDTATYFCARRYGTSYPDYGDANGFDPWGPGTLVTVSS
VL: AYQMTQSPSSLSASVGDRVTITCRASQSISSYLSWYQQKPGKAPKLLIYRASTLASGVPSRFSGSGSGTDFTLTISSLQPEDFATYYCQQSYSSSNVDNTFGGGTKVEIK
B14: 2/99 VH9/VL2 (antibody, V domains shown)
VH: QQLLESGGGLVQPGGSLRLSCAASGFTFSSYAMSWVRQAPGKGLEWVGYIWSGGSTDYADSVKGRFTISRDNSKNTLYLQMNSLRAEDTAVYYCAKRYGTSYPDYGDANGFDPWGQGTLVTVSS
VL: DIQMTQSPSSLSASVGDRVTITCRASQSISSYLNWYQQKPGKAPKLLIYRASTLASGVPSRFSGSGSGTDFTLTISSLQPEDFATYYCQQSYSSSNVDNTFGGGTKVEIK
B15: 2/99 VH7/VL6 (antibody, V domains shown)
VH: QQLVETGGGLIQPGGSLRLSCAASGFSLSSYAMSWVRQAPGKGLEWIGYIWSGGSTDYASWAKGRFTISRDNSKNTLYLQMNSLRAEDTAVYYCARRYGTSYPDYGDANGFDPWGQGTLVTVSS
VL: AIQLTQSPSSLSASVGDRVTITCRASQSISSYLSWYQQKPGKAPKLLIYRASTLASGVPSRFSGSGSGTDFTLTISSLQPEDFATYYCQQSYSSSNVDNTFGGGTKVEIK
B16: 2/99 VH23-DANG/VL6 (antibody, V domains shown)
VH: QSMQESGPGLVKPSQTLSLTCTVSGFSLSSYAMSWIRQHPGKGLEWIGYIWSGGSTDYASWAKSRVTISKTSTTVSLKLSSVTAADTAVYYCARRYGTSYPDYGDANGFDPWGQGTLVTVSS
VL: AIQLTQSPSSLSASVGDRVTITCRASQSISSYLSWYQQKPGKAPKLLIYRASTLASGVPSRFSGSGSGTDFTLTISSLQPEDFATYYCQQSYSSSNVDNTFGGGTKVEIK
B17: 2/99 VH23-DANG/VL15 (antibody, V domains shown)
VH: QSMQESGPGLVKPSQTLSLTCTVSGFSLSSYAMSWIRQHPGKGLEWIGYIWSGGSTDYASWAKSRVTISKTSTTVSLKLSSVTAADTAVYYCARRYGTSYPDYGDANGFDPWGQGTLVTVSS
VL: DIVMTQSPDSLAVSLGERATINCKSSQSISSYLIWYQQKPGQPPKLLIYRASTLASGVPDRFSGSGSGTDFTLTISSLQAEDVAVYYCQQAYSSSNVDNTFGGGTKVEIK
B18: 2/99 VH23-DAQG/VK9-SYA (antibody, V domains shown)
VH: QSMQESGPGLVKPSQTLSLTCTVSGFSLSSYAMSWIRQHPGKGLEWIGYIWSGGSTDYASWAKSRVTISKTSTTVSLKLSSVTAADTAVYYCARRYGTSYPDYGDAQGFDPWGQGTLVTVSS
VL: AIQLTQSPSSLSASVGDRVTITCRASQSISSYLAWYQQKPGKAPKLLIYRASTLASGVPSRFSGSGSGTDFTLTISSLQPEDFATYYCQQSYASSNVDNTFGGGTKVEI
B19: 2/99 VH23-DASG/VK9-SYA (antibody, V domains shown)
VH: QSMQESGPGLVKPSQTLSLTCTVSGFSLSSYAMSWIRQHPGKGLEWIGYIWSGGSTDYASWAKSRVTISKTSTTVSLKLSSVTAADTAVYYCARRYGTSYPDYGDASGFDPWGQGTLVTVSS
VL: AIQLTQSPSSLSASVGDRVTITCRASQSISSYLAWYQQKPGKAPKLLIYRASTLASGVPSRFSGSGSGTDFTLTISSLQPEDFATYYCQQSYASSNVDNTFGGGTKVEI
B20: 2/99 VH23-DASG/VK9-CYS (antibody, V domains shown)
VH: QSMQESGPGLVKPSQTLSLTCTVSGFSLSSYAMSWIRQHPGKGLEWIGYIWSGGSTDYASWAKSRVTISKTSTTVSLKLSSVTAADTAVYYCARRYGTSYPDYGDASGFDPWGQGTLVTVSS
VL: AIQLTQSPSSLSASVGDRVTITCRASQSISSYLAWYQQKPGKAPKLLIYRASTLASGVPSRFSGSGSGTDFTLTISSLQPEDFATYYCQQCYSSSNVDNTFGGGTKVEI
B21: 2/99 VH23-DASG/VK9-GYS (antibody, V domains shown)
VH: QSMQESGPGLVKPSQTLSLTCTVSGFSLSSYAMSWIRQHPGKGLEWIGYIWSGGSTDYASWAKSRVTISKTSTTVSLKLSSVTAADTAVYYCARRYGTSYPDYGDASGFDPWGQGTLVTVSS
VL: AIQLTQSPSSLSASVGDRVTITCRASQSISSYLAWYQQKPGKAPKLLIYRASTLASGVPSRFSGSGSGTDFTLTISSLQPEDFATYYCQQGYSSSNVDNTFGGGTKVEI

The target of the first test is T1, human transferrin receptor (recombinant, SPR) (human, UniProt P02786 89-760).
T1 construct: also called huTfR; human transferrin receptor-biotinylated
T1 sequence (P02786 89-760 limits assumed): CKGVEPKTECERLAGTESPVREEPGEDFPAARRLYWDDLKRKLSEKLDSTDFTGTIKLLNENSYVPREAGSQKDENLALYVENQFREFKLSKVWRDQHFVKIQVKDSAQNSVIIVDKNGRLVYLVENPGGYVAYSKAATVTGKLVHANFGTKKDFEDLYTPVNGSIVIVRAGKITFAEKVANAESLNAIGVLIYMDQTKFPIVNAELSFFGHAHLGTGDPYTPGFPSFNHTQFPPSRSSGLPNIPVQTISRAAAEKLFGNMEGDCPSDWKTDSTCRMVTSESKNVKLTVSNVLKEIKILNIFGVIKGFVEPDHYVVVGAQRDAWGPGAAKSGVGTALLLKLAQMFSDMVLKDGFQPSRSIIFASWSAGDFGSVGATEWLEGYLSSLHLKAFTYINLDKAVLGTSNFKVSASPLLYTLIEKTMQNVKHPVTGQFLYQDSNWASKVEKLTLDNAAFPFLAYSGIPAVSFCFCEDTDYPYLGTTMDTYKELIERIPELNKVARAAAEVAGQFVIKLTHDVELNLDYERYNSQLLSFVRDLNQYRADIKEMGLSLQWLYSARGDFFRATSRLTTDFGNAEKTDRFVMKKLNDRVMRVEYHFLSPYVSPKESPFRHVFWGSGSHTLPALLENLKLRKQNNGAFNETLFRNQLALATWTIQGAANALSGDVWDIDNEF
The test is described as follows: SPR 25C.
As to B1, the koff worked out at 0.00246 s⁻¹.
On the same count and under the same terms, then B2, with 0.00101 s⁻¹; and B3, with 0.00141 s⁻¹.
Regarding B4, the off-rate constant (koff) amounted to 0.00203 s⁻¹.
The same measure, in the same setting: then B5, with 0.00221 s⁻¹; and B6, with 0.00121 s⁻¹.
Still for that read-out and setting: then B7, with 0.00569 s⁻¹; and B8, with 0.00125 s⁻¹.
With B9, the dissociation rate constant (koff) worked out at 0.000694 s⁻¹.
Same read-out and setting: under B10 stands 0.000715 s⁻¹; under B11, 0.00187 s⁻¹; under B12, 0.00132 s⁻¹.
Regarding B13, the koff was 0.00136 s⁻¹.
Turning to B14, the koff amounted to 0.00399 s⁻¹.
As to B15, the koff was determined as 0.00197 s⁻¹.
Still for that read-out and setting: then B16, with 0.00116 s⁻¹; and B17, with 0.000986 s⁻¹.

Another test addresses T1, human transferrin receptor …. Briefly: SPR B4000 25C (Example 31).
With B18, the off-rate (koff) came to 0.000755 s⁻¹.
Same read-out and setting: under B19 stands 0.000484 s⁻¹.
On the same count and under the same terms, then B20, with 0.00233 s⁻¹.
On the same count and under the same terms, then B21, with 0.00373 s⁻¹.
